In patent publication US20040048327A1:
Numbered stars: 1 amine (or outer) side, 2 acyl side, 3 side chain; on linkers, the order of the positions; unused ones are H or OH. Square brackets hold non-standard residues; d marks the D form. * marks the point of attachment. AAsp = aza-Asp, O=C(N(CC(=O)[*:3])N[*:1])[*:2]; Cbz = O=C(OCc1ccccc1)*; NHBn = c1ccc(CN*)cc1

T1: caspase-6 (UniProt P55212)
T1 sequence (looked up): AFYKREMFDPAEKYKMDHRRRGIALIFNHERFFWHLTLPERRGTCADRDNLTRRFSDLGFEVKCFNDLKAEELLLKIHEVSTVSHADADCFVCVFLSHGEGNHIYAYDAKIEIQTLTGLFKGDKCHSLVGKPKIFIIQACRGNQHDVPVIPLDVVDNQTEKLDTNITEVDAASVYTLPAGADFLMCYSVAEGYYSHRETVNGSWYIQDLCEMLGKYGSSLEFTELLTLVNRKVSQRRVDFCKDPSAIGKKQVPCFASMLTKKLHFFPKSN

T2: caspase-3 (UniProt P42574)
T2 sequence (looked up): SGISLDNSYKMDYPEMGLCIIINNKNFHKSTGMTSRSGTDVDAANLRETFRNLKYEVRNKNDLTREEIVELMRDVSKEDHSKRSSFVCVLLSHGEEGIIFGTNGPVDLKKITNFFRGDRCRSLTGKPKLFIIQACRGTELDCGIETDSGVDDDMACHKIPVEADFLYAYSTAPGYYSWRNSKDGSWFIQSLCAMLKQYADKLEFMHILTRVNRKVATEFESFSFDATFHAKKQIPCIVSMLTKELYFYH


Assays:
Assay in all cases: cell-based or functional assay
[1] = target: T1, caspase-6
[2] = target: T2, caspase-3
[3] = target: autolytically stable caspase-1 variant (D381 E) (UniProt P29466)
Sequence of autolytically stable caspase-1 variant (D381 E) (P29466 other isoform, or with tags, fused parts or gaps mutant limits assumed): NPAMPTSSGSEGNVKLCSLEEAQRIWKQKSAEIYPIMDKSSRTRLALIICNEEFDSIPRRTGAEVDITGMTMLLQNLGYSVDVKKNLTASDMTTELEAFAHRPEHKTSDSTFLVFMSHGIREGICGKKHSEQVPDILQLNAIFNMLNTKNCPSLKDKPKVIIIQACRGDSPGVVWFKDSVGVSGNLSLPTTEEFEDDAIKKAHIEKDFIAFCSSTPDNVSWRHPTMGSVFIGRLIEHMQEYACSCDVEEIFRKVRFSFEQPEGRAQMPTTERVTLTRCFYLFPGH

Row | k2 [1] | k2 [2] | k2 [3] | Binder
1 | 13800 M⁻¹ s⁻¹ | 2750 M⁻¹ s⁻¹ |  | Cbz-LET[AAsp]-{(2S,3S)‑EP‑CON(CH2Ph)2} [Cbz-Leu-Glu-Thr-AAsp-(2S,3S)-EP-CON(CH2Ph)2]
2 |  | 2550 M⁻¹ s⁻¹ |  | Cbz-LET[AAsp]-{(S,S)‑EP‑CONHCH2CH2Ph} [Cbz-Leu-Glu-Thr-AAsp-(S,S)-EP-CONHCH2CH2Ph]
3 |  | 3250 M⁻¹ s⁻¹ | 19600 M⁻¹ s⁻¹ | Cbz-LET[AAsp]-{(2R,3R)‑EP‑COOEt} [Cbz-Leu-Glu-Thr-AAsp-(2R, 3R)-EP-COOEt]

Further lines, the binder ahead of its results:

Row | Binder | k2 [1] | k2 [2] | k2 [3]
4 | Cbz-LET[AAsp]-{(2S,3S)‑EP‑CON(CH3)CH2Ph} [Cbz-Leu-Glu-Thr-AAsp-(2S,3S)-EP-CON(CH3)CH2Ph] | 9680 M⁻¹ s⁻¹ | 2640 M⁻¹ s⁻¹ | 
5 | Cbz-LET[AAsp]-{(S,S)‑EP‑CO-Ala-NHBn} [Cbz-Leu-Glu-Thr-AAsp-(S,S)-EP-CO-Ala-NHCH2Ph] |  | 1280 M⁻¹ s⁻¹ | 
6 | Cbz-LET[AAsp]-{(S,S)‑EP‑COOCH2Ph} [Cbz-Leu-Glu-Thr-AAsp-(S,S)-EP-COOCH2Ph] |  | 3520 M⁻¹ s⁻¹ | 43500 M⁻¹ s⁻¹
7 | Cbz-LET[AAsp]-{(2S,3S)‑EP‑COOEt} [Cbz-Leu-Glu-Thr-AAsp-(2S, 3S)-EP-COOEt] |  | 3210 M⁻¹ s⁻¹ | 25700 M⁻¹ s⁻¹
